From PMC5426849

Target: fluoresceinated cortactin phospho-Y482 peptide
Test: fluorescence polarisation

| Substance | Kd [µM] |
| --- | --- |
| Abl SH2 domain, monomeric, cleaved from GST (from UniProt P00519 127-217) (domain or fragment) | > 5 |
| PLCγ C-terminal SH2 domain, cleaved from GST (domain or fragment) | > 5 |
| PLCγ N-terminal SH2 domain, cleaved from GST (domain or fragment) | > 5 |
| p85α C-terminal SH2 domain, cleaved from GST (domain or fragment) | > 5 |
| p85α N-terminal SH2 domain, cleaved from GST (domain or fragment) | > 5 |
